Values quoted from earlier work as cited in patent US20260085103A1, “LONG-ACTING INSULIN COMPOUND” (CHENGDU AODA BIOTECHNOLOGY CO., LTD, priority 2022, published 2026).

Assays:
[1] = after addition of two arginines at the end of the B chain (changed from 5.4)
[2] = background statement, subcutaneous injection

Row | Substance | isoelectric point [1] | duration of action [2] | half-life [2]
1 | insulin glargine | 6.7 | 20 to 24 h | 12 h
2 | insulin degludec |  | up to 42 hours | 24 h
